Assay results as given in article PMC8809517, “Cofactor-independent RNA editing by a synthetic S-type PPR protein”.

T1: GFP-9S library array, motif 4 ND N98E;D124L (synthetic construct, N98E;D124L)
T1 chain: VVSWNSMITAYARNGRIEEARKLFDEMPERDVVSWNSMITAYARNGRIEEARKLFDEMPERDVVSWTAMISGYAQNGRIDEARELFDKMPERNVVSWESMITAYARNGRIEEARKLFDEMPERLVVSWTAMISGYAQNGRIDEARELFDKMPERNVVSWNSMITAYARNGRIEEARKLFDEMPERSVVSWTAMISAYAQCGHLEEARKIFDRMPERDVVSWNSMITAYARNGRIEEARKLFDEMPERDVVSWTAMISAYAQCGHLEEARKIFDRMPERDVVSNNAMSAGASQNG

T2: GFP-9S library array, motif 4 ND N98H (synthetic construct, N98H)
T2 chain: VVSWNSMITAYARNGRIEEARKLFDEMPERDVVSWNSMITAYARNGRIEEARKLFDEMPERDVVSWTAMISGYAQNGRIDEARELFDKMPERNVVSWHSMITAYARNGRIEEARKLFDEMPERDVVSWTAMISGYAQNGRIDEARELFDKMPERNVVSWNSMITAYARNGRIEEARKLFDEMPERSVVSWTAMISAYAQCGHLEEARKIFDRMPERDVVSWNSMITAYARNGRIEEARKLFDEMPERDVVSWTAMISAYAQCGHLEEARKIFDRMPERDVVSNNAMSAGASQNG

T3: GFP-9S library array, motif 4 ND N98R (synthetic construct, N98R)
T3 chain: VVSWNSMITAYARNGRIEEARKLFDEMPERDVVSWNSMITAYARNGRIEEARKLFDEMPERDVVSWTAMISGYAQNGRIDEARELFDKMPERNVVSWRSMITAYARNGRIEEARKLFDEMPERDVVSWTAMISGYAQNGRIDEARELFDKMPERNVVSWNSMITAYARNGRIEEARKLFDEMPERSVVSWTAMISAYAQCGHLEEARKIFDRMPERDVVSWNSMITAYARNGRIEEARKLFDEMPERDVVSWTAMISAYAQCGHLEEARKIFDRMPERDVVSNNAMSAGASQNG

T4: GFP-9S library array, motif 4 ND N98T;D124V (synthetic construct, N98T;D124V)
T4 chain: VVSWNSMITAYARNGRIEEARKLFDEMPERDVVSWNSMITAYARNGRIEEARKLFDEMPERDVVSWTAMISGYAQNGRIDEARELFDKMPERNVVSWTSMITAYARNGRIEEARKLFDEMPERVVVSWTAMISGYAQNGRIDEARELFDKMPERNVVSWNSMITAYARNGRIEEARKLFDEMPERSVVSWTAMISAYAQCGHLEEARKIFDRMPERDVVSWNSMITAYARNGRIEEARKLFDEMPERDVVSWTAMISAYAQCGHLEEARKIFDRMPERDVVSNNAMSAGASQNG

T5: GFP-9S library array, motif 4 ND N98Y;D124S (synthetic construct, N98Y;D124S)
T5 chain: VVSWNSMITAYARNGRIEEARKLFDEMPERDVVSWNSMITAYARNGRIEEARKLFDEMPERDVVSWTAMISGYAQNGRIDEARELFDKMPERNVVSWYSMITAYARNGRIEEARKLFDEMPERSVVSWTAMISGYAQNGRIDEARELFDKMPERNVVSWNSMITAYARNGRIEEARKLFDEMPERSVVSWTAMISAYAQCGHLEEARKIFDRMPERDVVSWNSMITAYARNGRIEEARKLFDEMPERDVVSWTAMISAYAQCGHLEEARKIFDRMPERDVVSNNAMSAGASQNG


Key:
Assay in all cases: high-throughput RNA pulldown from lysate on Ni-NTA beads; HRP: 50 mM Tris pH 8, 150 mM NaCl, 1 mM beta-mercaptoethanol, 50 ug/ml BSA, 3 ug/ml yeast RNA, 0.5% heparin; ITC and FP: Tris pH 8, 200 mM KCl, 5% glycerol; MST: 50 mM Tris pH 8, 200 mM NaCl, 1 mM DTT, BSA, heparin, 0.05% Tween 20
Conditions in all cases: tags: N-terminal His-eGFP
[1] = target: T1, GFP-9S library array, motif 4 ND …
[2] = target: T2, GFP-9S library array, motif 4 ND N98H
[3] = target: T3, GFP-9S library array, motif 4 ND N98R
[4] = target: T4, GFP-9S library array, motif 4 ND …
[5] = target: T5, GFP-9S library array, motif 4 ND …

Binder	Kd ([1]; label: 5' IRDye 800CW) [nM]	Kd ([2]; label: 5' IRDye 800CW) [nM]	Kd ([3]; label: 5' IRDye 800CW) [nM]	Kd ([4]; label: 5' IRDye 800CW) [nM]	Kd ([5]; label: 5' IRDye 800CW) [nM]	Kd ([1]; label: 5' Cy5) [nM]	Kd ([2]; label: 5' Cy5) [nM]	Kd ([3]; label: 5' Cy5) [nM]	Kd ([4]; label: 5' Cy5) [nM]	Kd ([5]; label: 5' Cy5) [nM]
AUUAAACGUGA (ssRNA) [IR-rpoA-A]	147	465	645	31.1	911	–	–	–	–	–
AUUAGACGUGA (ssRNA) [Cy5-rpoA-G]	–	–	–	–	–	69	26.5	253	85.6	224
AUUAUACGUGA (ssRNA) [IR-rpoA-U]	196	65.7	428	140	134	–	–	–	–	–
AUUACACGUGA (ssRNA) [Cy5-rpoA]	–	–	–	–	–	63.1	144	207	95.8	168
